This is an account of results in publication PMC8197028.

What all share (assay): NMR
The target in one data set is Asp46 (UniProt position 796, -LSDEDFKAVF). The following applies: native (folded) state.
A further data set concerns the target Glu45 (UniProt position 795, --LSDEDFKAV). The following applies: native (folded) state.
In another data set the target is Glu72 (UniProt position 822, QHLKKEKGLF-). The following applies: native (folded) state.
Data set [1] has as its target Asp44 (UniProt position 794, ---LSDEDFKA). The settings on record: native (folded) state; cited from earlier work.
The subject of data set [2] is Asp44. The settings on record: isolated peptide fragments, largely unstructured; cited from earlier work.
Where [3] appears, read: fully folded over the whole pH range.

Broadly, the pKa is the pH at which an ionisable group is half protonated.

In the case of “Villin headpiece helical subdomain HP36 D44N (not stated in the article (Gallus gallus inferred); D44N)”, the pKa is listed as 3.43±0.05 in the data set with Asp46 (setting [3]), 3.86±0.02 with Glu45 (setting [3]) and 4.32±0.02 with Glu72 (setting [3]).

On to “Villin headpiece helical subdomain HP36 D44N/K48M (not stated in the article (Gallus gallus inferred); D44N;K48M)”, for which the pKa turned out to be 3.49±0.08 in the data set with Asp46 (setting [3]), 4.39±0.05 with Glu45 (setting [3]) and 4.37±0.03 with Glu72 (setting [3]).

Turning to “Villin headpiece helical subdomain HP36, wild type (not stated in the article (Gallus gallus inferred))”, the pKa with Asp44 [1] is reported as 3.04±0.12; in the data set with Asp46 (cited from earlier work), 3.44±0.11; with Glu45 (cited from earlier work), 3.95±0.02; with Glu72 (cited from earlier work) it was 4.37±0.03.

With “Villin headpiece helical subdomain HP36 K48M (not stated in the article (Gallus gallus inferred); K48M)”, the pKa in the data set with Asp44 [1] is given as 3.23±0.07; with Asp46 (cited from earlier work), 3.38±0.05; with Glu45 (cited from earlier work) it was 4.68±0.09; with Glu72 (cited from earlier work) it was 4.41±0.03.

“HP36 peptide fragment, residues 41-53 (not stated in the article (Gallus gallus inferred))”: in the data set on Asp44 [2], the pKa is reported as 4.00.
